Source: patent US20120076797A1, “Modulation of kit signaling and hematopoietic cell development by IL-4 receptor modulation” (priority 2010, published 2012)
Entries after “also recorded” stand apart in the source; their conditions may differ.

What was measured:
Format in all cases: cell-based
[1] = biological target: T1, Kit (Homo sapiens, UniProt P10721); assay: KL stimulation of M07e cells; phosphorylation of Kit; conditions: 250 ng/ml recombinant human KL
T1 construct: M07e cells are known to express both Kit and IL-4R; host or cells: M07e (human megakaryoblastic cell line)
Description: (§1) Cell culture. M07e cells (DSMZ, Braunschweig, Germany) were cultured in RPMI-1640 (Invitrogen/Gibco, Carlsbad, Calif.) with 10% fetal calf serum (FCS; Omega Scientific, Tarzana, Calif.) in the presence of human IL-3 (20 ng/ml; Biosource, Camarillo, Calif.) and human IL-4 (20 ng/ml; R&D Systems Inc, Minneapolis, Minn.). For stimulation of Kit with Kit ligand (KL), M07e cells were growth factor—as well as serum-deprived for 12 hours prior to stimulation with 250 ng/ml of recombinant human KL (Biosource, Camarillo, Calif.).
(§2) Immunoprecipitation and immunoblotting. Immunoprecipitation and immunoblotting were performed as reported previously (Mani, M. et al. Blood 114, 2900-2908 (2009)). Following stimulation with KL, cells were collected in ice-cold PBS containing 1 mM sodium ortho-vanadate (Sigma, St. Louis, Mo.), resuspended at a density of 1×10^7-2×10^7 cells/ml in lysis buffer containing 10 mM Tris-HCl (pH7.4), 150 mM NaCl, 20 mM sodium phosphate (pH7.4), 10 mM sodium pyrophosphate (pH7.4), 5 mM EDTA, 1 mM sodium ortho-vanadate, 1 mM glycerophosphate (Sigma) and 1% Triton X-100, and lysed. Protease inhibitors (Complete Protease Inhibitor Cocktail, Roche, Indianapolis, Ind.) were added according to manufacturer's recommendations. Post-nuclear supernatants were subjected to one round of pre-clearing with Protein A Sepharose (Amersham/Pharmacia, Piscataway, N.J.). […]

[2] = tested on: IL-4R (IL-4Rα and γc subunits); assay: KL stimulation of M07e cells; immunoprecipitation of IL-4R subunits and phosphotyrosine immunoblotting; conditions: growth factor- and serum-deprived 12 hours, 250 ng/ml recombinant human KL, no IL-4
Description: as §1, §2

[3] = tested on: murine HSC (Lin-Sca-1+Kit+); IL-4R/STAT6; assay: Intracellular phospho-STAT6 analysis (Phospho-Flow) of murine HSC after IL-4 stimulation; conditions: murine bone marrow Lin-Sca-1+Kit+ HSC, 1 ng/ml recombinant mouse IL-4, 15 min
Text: Intracellular phospho-STAT6 analysis. Cells derived from c-Kit(BAC)-EGFP mice that are transgenic for a bacterial artificial chromosome expressing EGFP under the control of the Kit promoter were used instead of anti-Kit antibodies (Tallini, Y. N. et al. Proc Natl Acad Sci USA 106, 1808-1813 (2009)). Freshly isolated murine bone marrow mononuclear cells were suspended in cold RPMI-1640 containing 10% FBS and stained with PE-CY7 conjugated anti-mouse Sca-1 (BD Biosciences, San Jose, Calif., Cat 558162) and PE conjugated anti-mouse lineage cocktail (Biolegend, San Diego, Calif. Cat: 78035) at 4° C. for 60 min. The cells were washed with cold RPMI-1640 containing 10% FBS and resuspended in pre-warmed RPMI-1640 containing 10% FBS at concentration of 5-10 million cells/ml. Cells were transferred as 0.5 ml aliquots into flow cytometry test tubes (BD Biosciences, Falcon 2052), rested at 37° C. for 1 hr and stimulated with 1 ng/ml of recombinant mouse IL-4 (Invitrogen, Cat: PMC 0045) for 15 min. Cells were fixed by adding 25 μl of 32% paraformaldehyde (EM grade, Electron Microscopy Sciences, Hatfield, Pa., Cat: 15714) at room temperature for 10 min. […] Samples were washed (centrifugation at 1800 rpm for 5 min) once with staining buffer and analyzed on an FACS Aria II (BD Biosciences). The results were analyzed using Flow Jo software.

T1 sequence (P10721 26-976): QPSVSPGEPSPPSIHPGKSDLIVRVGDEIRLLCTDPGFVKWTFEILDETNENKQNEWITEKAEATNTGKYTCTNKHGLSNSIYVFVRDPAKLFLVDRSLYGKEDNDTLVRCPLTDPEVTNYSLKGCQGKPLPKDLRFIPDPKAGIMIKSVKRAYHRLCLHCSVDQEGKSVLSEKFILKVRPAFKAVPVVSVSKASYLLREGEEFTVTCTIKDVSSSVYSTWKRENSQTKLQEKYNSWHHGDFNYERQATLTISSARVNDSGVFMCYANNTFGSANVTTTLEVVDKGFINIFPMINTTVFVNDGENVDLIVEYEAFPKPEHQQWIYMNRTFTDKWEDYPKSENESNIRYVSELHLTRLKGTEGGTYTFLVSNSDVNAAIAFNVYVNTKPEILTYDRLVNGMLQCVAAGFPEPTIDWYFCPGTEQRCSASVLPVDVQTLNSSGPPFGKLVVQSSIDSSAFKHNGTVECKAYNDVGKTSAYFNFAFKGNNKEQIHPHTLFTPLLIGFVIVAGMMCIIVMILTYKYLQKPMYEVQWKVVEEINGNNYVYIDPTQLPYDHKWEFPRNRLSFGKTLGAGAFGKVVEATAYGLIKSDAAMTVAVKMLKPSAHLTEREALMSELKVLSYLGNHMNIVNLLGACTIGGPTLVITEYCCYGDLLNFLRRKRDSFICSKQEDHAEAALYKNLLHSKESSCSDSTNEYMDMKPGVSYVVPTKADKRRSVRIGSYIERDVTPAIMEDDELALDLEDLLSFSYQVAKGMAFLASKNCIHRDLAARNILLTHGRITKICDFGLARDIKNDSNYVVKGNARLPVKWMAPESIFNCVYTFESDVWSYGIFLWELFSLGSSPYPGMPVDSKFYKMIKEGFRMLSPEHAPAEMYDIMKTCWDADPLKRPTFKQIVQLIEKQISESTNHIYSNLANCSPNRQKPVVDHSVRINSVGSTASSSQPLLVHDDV

phosphorylation of Kit after KL stimulation [1] | Molecule | time to tyrosine phosphorylation of IL-4Rα and γc subunits of IL-4R after KL treatment [2] [min] | STAT6 phosphorylation in response to IL-4 stimulation [3]
rapid phosphorylation of Kit | KL: recombinant human Kit ligand (Biosource), ligand of the Kit receptor, used to stimulate M07e cells | ≤ 5 | –
– | IL-4: recombinant mouse interleukin 4 (Invitrogen), cognate ligand of IL-4R, used to stimulate murine HSC (protein) HIHGCDKNHLREIIGILNEVTGEGTPCTEMDVPNVLTATKNTTESELVCRASKVLRIFYLKHGKTPCLKKNSSVLMELQRLFRAFRCLDSSISCTMNESKSTSLKDFLESLKSIMQMDYS | – | STAT6 phosphorylation was observed; also recorded: STATE phosphorylation
